The record followed here is patent US20150344540A1, “NOVEL GLP-1 RECEPTOR AGONISTS WITH CHOLESTEROL EFFLUX ACTIVITY” (NOVO NORDISK A/S, priority 2012, published 2015).

B1: [Aib8,Glu23,Val25,Glu34,Lys35,Gly36,Lys37]-GLP-1-(7-37)-peptidyl-Glu-Phe-Leu amide (peptide)
peptide: H[Aib]EGTFTSDVSSYLEGEAVKEFIAWLVEKGKEFL-NH2
modifications: N-terminus assumed
SMILES: CC[C@H](C)[C@H](NC(=O)[C@H](Cc1ccccc1)NC(=O)[C@H](CCC(=O)O)NC(=O)[C@H](CCCCN)NC(=O)[C@@H](NC(=O)[C@H](C)NC(=O)[C@H](CCC(=O)O)NC(=O)CNC(=O)[C@H](CCC(=O)O)NC(=O)[C@H](CC(C)C)NC(=O)[C@H](Cc1ccc(O)cc1)NC(=O)[C@H](CO)NC(=O)[C@H](CO)NC(=O)[C@@H](NC(=O)[C@H](CC(=O)O)NC(=O)[C@H](CO)NC(=O)[C@@H](NC(=O)[C@H](Cc1ccccc1)NC(=O)[C@@H](NC(=O)CNC(=O)[C@H](CCC(=O)O)NC(=O)C(C)(C)NC(=O)[C@@H](N)Cc1c[nH]cn1)[C@@H](C)O)[C@@H](C)O)C(C)C)C(C)C)C(=O)N[C@@H](C)C(=O)N[C@@H](Cc1c[nH]c2ccccc12)C(=O)N[C@@H](CC(C)C)C(=O)N[C@H](C(=O)N[C@@H](CCC(=O)O)C(=O)N[C@@H](CCCCN)C(=O)NCC(=O)N[C@@H](CCCCN)C(=O)N[C@@H](CCC(=O)O)C(=O)N[C@@H](Cc1ccccc1)C(=O)N[C@@H](CC(C)C)C(N)=O)C(C)C
B2: [Aib8,Glu23,Val25,Glu34,Lys35,Val36,Lys37]-GLP-1-(7-37)-peptidyl-Glu-Gly-Leu amide (peptide)
peptide: H[Aib]EGTFTSDVSSYLEGEAVKEFIAWLVEKVKEGL-NH2
modifications: N-terminus assumed
SMILES: CC[C@H](C)[C@H](NC(=O)[C@H](Cc1ccccc1)NC(=O)[C@H](CCC(=O)O)NC(=O)[C@H](CCCCN)NC(=O)[C@@H](NC(=O)[C@H](C)NC(=O)[C@H](CCC(=O)O)NC(=O)CNC(=O)[C@H](CCC(=O)O)NC(=O)[C@H](CC(C)C)NC(=O)[C@H](Cc1ccc(O)cc1)NC(=O)[C@H](CO)NC(=O)[C@H](CO)NC(=O)[C@@H](NC(=O)[C@H](CC(=O)O)NC(=O)[C@H](CO)NC(=O)[C@@H](NC(=O)[C@H](Cc1ccccc1)NC(=O)[C@@H](NC(=O)CNC(=O)[C@H](CCC(=O)O)NC(=O)C(C)(C)NC(=O)[C@@H](N)Cc1c[nH]cn1)[C@@H](C)O)[C@@H](C)O)C(C)C)C(C)C)C(=O)N[C@@H](C)C(=O)N[C@@H](Cc1c[nH]c2ccccc12)C(=O)N[C@@H](CC(C)C)C(=O)N[C@H](C(=O)N[C@@H](CCC(=O)O)C(=O)N[C@@H](CCCCN)C(=O)N[C@H](C(=O)N[C@@H](CCCCN)C(=O)N[C@@H](CCC(=O)O)C(=O)NCC(=O)N[C@@H](CC(C)C)C(N)=O)C(C)C)C(C)C
B3: [Aib8,Glu23,Val25,Glu30,Glu34,Lys35,Val36,Lys37]-GLP-1-(7-37)-peptidyl-Glu-Lys-Leu amide (peptide)
peptide: H[Aib]EGTFTSDVSSYLEGEAVKEFIEWLVEKVKEKL-NH2
modifications: N-terminus assumed
SMILES: CC[C@H](C)[C@H](NC(=O)[C@H](Cc1ccccc1)NC(=O)[C@H](CCC(=O)O)NC(=O)[C@H](CCCCN)NC(=O)[C@@H](NC(=O)[C@H](C)NC(=O)[C@H](CCC(=O)O)NC(=O)CNC(=O)[C@H](CCC(=O)O)NC(=O)[C@H](CC(C)C)NC(=O)[C@H](Cc1ccc(O)cc1)NC(=O)[C@H](CO)NC(=O)[C@H](CO)NC(=O)[C@@H](NC(=O)[C@H](CC(=O)O)NC(=O)[C@H](CO)NC(=O)[C@@H](NC(=O)[C@H](Cc1ccccc1)NC(=O)[C@@H](NC(=O)CNC(=O)[C@H](CCC(=O)O)NC(=O)C(C)(C)NC(=O)[C@@H](N)Cc1c[nH]cn1)[C@@H](C)O)[C@@H](C)O)C(C)C)C(C)C)C(=O)N[C@@H](CCC(=O)O)C(=O)N[C@@H](Cc1c[nH]c2ccccc12)C(=O)N[C@@H](CC(C)C)C(=O)N[C@H](C(=O)N[C@@H](CCC(=O)O)C(=O)N[C@@H](CCCCN)C(=O)N[C@H](C(=O)N[C@@H](CCCCN)C(=O)N[C@@H](CCC(=O)O)C(=O)N[C@@H](CCCCN)C(=O)N[C@@H](CC(C)C)C(N)=O)C(C)C)C(C)C
B4: [Aib8,Glu23,Val25,Lys35,Aib36,Lys37]-GLP-1-(7-37)-peptidyl-Glu-Phe-Leu amide (peptide)
peptide: H[Aib]EGTFTSDVSSYLEGEAVKEFIAWLVKK[Aib]KEFL-NH2
modifications: N-terminus assumed
SMILES: CC[C@H](C)[C@H](NC(=O)[C@H](Cc1ccccc1)NC(=O)[C@H](CCC(=O)O)NC(=O)[C@H](CCCCN)NC(=O)[C@@H](NC(=O)[C@H](C)NC(=O)[C@H](CCC(=O)O)NC(=O)CNC(=O)[C@H](CCC(=O)O)NC(=O)[C@H](CC(C)C)NC(=O)[C@H](Cc1ccc(O)cc1)NC(=O)[C@H](CO)NC(=O)[C@H](CO)NC(=O)[C@@H](NC(=O)[C@H](CC(=O)O)NC(=O)[C@H](CO)NC(=O)[C@@H](NC(=O)[C@H](Cc1ccccc1)NC(=O)[C@@H](NC(=O)CNC(=O)[C@H](CCC(=O)O)NC(=O)C(C)(C)NC(=O)[C@@H](N)Cc1c[nH]cn1)[C@@H](C)O)[C@@H](C)O)C(C)C)C(C)C)C(=O)N[C@@H](C)C(=O)N[C@@H](Cc1c[nH]c2ccccc12)C(=O)N[C@@H](CC(C)C)C(=O)N[C@H](C(=O)N[C@@H](CCCCN)C(=O)N[C@@H](CCCCN)C(=O)NC(C)(C)C(=O)N[C@@H](CCCCN)C(=O)N[C@@H](CCC(=O)O)C(=O)N[C@@H](Cc1ccccc1)C(=O)N[C@@H](CC(C)C)C(N)=O)C(C)C
B5: [Aib8,Glu23,Val25,Glu34,Lys35,Val36,Lys37]-GLP-1-(7-37)-peptidyl-Glu-Glu-Leu amide (peptide)
peptide: H[Aib]EGTFTSDVSSYLEGEAVKEFIAWLVEKVKEEL-NH2
modifications: N-terminus assumed
SMILES: CC[C@H](C)[C@H](NC(=O)[C@H](Cc1ccccc1)NC(=O)[C@H](CCC(=O)O)NC(=O)[C@H](CCCCN)NC(=O)[C@@H](NC(=O)[C@H](C)NC(=O)[C@H](CCC(=O)O)NC(=O)CNC(=O)[C@H](CCC(=O)O)NC(=O)[C@H](CC(C)C)NC(=O)[C@H](Cc1ccc(O)cc1)NC(=O)[C@H](CO)NC(=O)[C@H](CO)NC(=O)[C@@H](NC(=O)[C@H](CC(=O)O)NC(=O)[C@H](CO)NC(=O)[C@@H](NC(=O)[C@H](Cc1ccccc1)NC(=O)[C@@H](NC(=O)CNC(=O)[C@H](CCC(=O)O)NC(=O)C(C)(C)NC(=O)[C@@H](N)Cc1c[nH]cn1)[C@@H](C)O)[C@@H](C)O)C(C)C)C(C)C)C(=O)N[C@@H](C)C(=O)N[C@@H](Cc1c[nH]c2ccccc12)C(=O)N[C@@H](CC(C)C)C(=O)N[C@H](C(=O)N[C@@H](CCC(=O)O)C(=O)N[C@@H](CCCCN)C(=O)N[C@H](C(=O)N[C@@H](CCCCN)C(=O)N[C@@H](CCC(=O)O)C(=O)N[C@@H](CCC(=O)O)C(=O)N[C@@H](CC(C)C)C(N)=O)C(C)C)C(C)C
B6: [Aib8,Glu23,Val25,Glu34,Lys35,Val36,Lys37]-GLP-1-(7-37)-peptidyl-Asp-Phe-Leu amide (peptide)
peptide: H[Aib]EGTFTSDVSSYLEGEAVKEFIAWLVEKVKDFL-NH2
modifications: N-terminus assumed
SMILES: CC[C@H](C)[C@H](NC(=O)[C@H](Cc1ccccc1)NC(=O)[C@H](CCC(=O)O)NC(=O)[C@H](CCCCN)NC(=O)[C@@H](NC(=O)[C@H](C)NC(=O)[C@H](CCC(=O)O)NC(=O)CNC(=O)[C@H](CCC(=O)O)NC(=O)[C@H](CC(C)C)NC(=O)[C@H](Cc1ccc(O)cc1)NC(=O)[C@H](CO)NC(=O)[C@H](CO)NC(=O)[C@@H](NC(=O)[C@H](CC(=O)O)NC(=O)[C@H](CO)NC(=O)[C@@H](NC(=O)[C@H](Cc1ccccc1)NC(=O)[C@@H](NC(=O)CNC(=O)[C@H](CCC(=O)O)NC(=O)C(C)(C)NC(=O)[C@@H](N)Cc1c[nH]cn1)[C@@H](C)O)[C@@H](C)O)C(C)C)C(C)C)C(=O)N[C@@H](C)C(=O)N[C@@H](Cc1c[nH]c2ccccc12)C(=O)N[C@@H](CC(C)C)C(=O)N[C@H](C(=O)N[C@@H](CCC(=O)O)C(=O)N[C@@H](CCCCN)C(=O)N[C@H](C(=O)N[C@@H](CCCCN)C(=O)N[C@@H](CC(=O)O)C(=O)N[C@@H](Cc1ccccc1)C(=O)N[C@@H](CC(C)C)C(N)=O)C(C)C)C(C)C
B7: [Aib8,Glu23,Val25,Glu34,Lys35,Val36,Lys37]-GLP-1-(7-37)-peptidyl-Glu-Lys-Leu amide (peptide)
peptide: H[Aib]EGTFTSDVSSYLEGEAVKEFIAWLVEKVKEKL-NH2
modifications: N-terminus assumed
SMILES: CC[C@H](C)[C@H](NC(=O)[C@H](Cc1ccccc1)NC(=O)[C@H](CCC(=O)O)NC(=O)[C@H](CCCCN)NC(=O)[C@@H](NC(=O)[C@H](C)NC(=O)[C@H](CCC(=O)O)NC(=O)CNC(=O)[C@H](CCC(=O)O)NC(=O)[C@H](CC(C)C)NC(=O)[C@H](Cc1ccc(O)cc1)NC(=O)[C@H](CO)NC(=O)[C@H](CO)NC(=O)[C@@H](NC(=O)[C@H](CC(=O)O)NC(=O)[C@H](CO)NC(=O)[C@@H](NC(=O)[C@H](Cc1ccccc1)NC(=O)[C@@H](NC(=O)CNC(=O)[C@H](CCC(=O)O)NC(=O)C(C)(C)NC(=O)[C@@H](N)Cc1c[nH]cn1)[C@@H](C)O)[C@@H](C)O)C(C)C)C(C)C)C(=O)N[C@@H](C)C(=O)N[C@@H](Cc1c[nH]c2ccccc12)C(=O)N[C@@H](CC(C)C)C(=O)N[C@H](C(=O)N[C@@H](CCC(=O)O)C(=O)N[C@@H](CCCCN)C(=O)N[C@H](C(=O)N[C@@H](CCCCN)C(=O)N[C@@H](CCC(=O)O)C(=O)N[C@@H](CCCCN)C(=O)N[C@@H](CC(C)C)C(N)=O)C(C)C)C(C)C
B8: [Aib8,Glu23,Val25,Glu34,Lys35,Val36,Lys37]-GLP-1-(7-37)-peptidyl-Gly-Phe-Leu amide (peptide)
peptide: H[Aib]EGTFTSDVSSYLEGEAVKEFIAWLVEKVKGFL-NH2
modifications: N-terminus assumed
SMILES: CC[C@H](C)[C@H](NC(=O)[C@H](Cc1ccccc1)NC(=O)[C@H](CCC(=O)O)NC(=O)[C@H](CCCCN)NC(=O)[C@@H](NC(=O)[C@H](C)NC(=O)[C@H](CCC(=O)O)NC(=O)CNC(=O)[C@H](CCC(=O)O)NC(=O)[C@H](CC(C)C)NC(=O)[C@H](Cc1ccc(O)cc1)NC(=O)[C@H](CO)NC(=O)[C@H](CO)NC(=O)[C@@H](NC(=O)[C@H](CC(=O)O)NC(=O)[C@H](CO)NC(=O)[C@@H](NC(=O)[C@H](Cc1ccccc1)NC(=O)[C@@H](NC(=O)CNC(=O)[C@H](CCC(=O)O)NC(=O)C(C)(C)NC(=O)[C@@H](N)Cc1c[nH]cn1)[C@@H](C)O)[C@@H](C)O)C(C)C)C(C)C)C(=O)N[C@@H](C)C(=O)N[C@@H](Cc1c[nH]c2ccccc12)C(=O)N[C@@H](CC(C)C)C(=O)N[C@H](C(=O)N[C@@H](CCC(=O)O)C(=O)N[C@@H](CCCCN)C(=O)N[C@H](C(=O)N[C@@H](CCCCN)C(=O)NCC(=O)N[C@@H](Cc1ccccc1)C(=O)N[C@@H](CC(C)C)C(N)=O)C(C)C)C(C)C

Where no end group is shown, it is not given here. [ ]: non-standard residue; d: D form. Aib = CC(C)(N)C(=O)O

The target in the assay is human GLP-1 receptor (human, UniProt P43220). The assay is described as follows: cell-based or functional assay.
Take B1: the “CRE luciferase EC50, 0% HSA” value was 0.034 nM and the “CRE luciferase EC50, 1% HSA” value worked out at 0.007 nM.
On the same counts, the results for B2 are 0.011 nM and 0.003 nM.
B3: the “CRE luciferase EC50, 0% HSA” value worked out at 0.163 nM and the “CRE luciferase EC50, 1% HSA” value was 0.039 nM.
For the molecule B4, the “CRE luciferase EC50, 0% HSA” value worked out at 0.921 nM and the “CRE luciferase EC50, 1% HSA” value was 0.276 nM.
For the molecule B5, the “CRE luciferase EC50, 0% HSA” value was found to be 0.025 nM and the “CRE luciferase EC50, 1% HSA” value amounted to 0.016 nM.
On the same counts, the results for B6 are 0.323 nM and 0.128 nM.
On the same counts, the results for B7 are 0.059 nM and 0.029 nM.
B8: the “CRE luciferase EC50, 0% HSA” value stood at 0.129 nM and the “CRE luciferase EC50, 1% HSA” value turned out to be 0.032 nM.
